These are literature values, as cited in article PMC6359047.

For the series, the target named is MT1-MMP (Homo sapiens) (UniProt P50281).

Chain of TIMP-1 (P01033 24-207): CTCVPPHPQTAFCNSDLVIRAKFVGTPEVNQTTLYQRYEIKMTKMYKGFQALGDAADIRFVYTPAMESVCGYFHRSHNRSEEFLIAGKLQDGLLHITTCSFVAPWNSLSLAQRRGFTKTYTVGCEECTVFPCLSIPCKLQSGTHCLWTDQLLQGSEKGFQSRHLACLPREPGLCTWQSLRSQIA

Turning to TIMP-1 (from UniProt P01033), the Ki (in general, a measure of affinity in units of concentration, obtained from inhibition or displacement) was 178 nM.
